Residue numbers refer to the chain shown, from its start. Names may count otherwise. One block for each molecule: values may come before it.
Key:
[1] = molecular target: T1, wtPSP (human phosphoserine phosphatase, PSP) (Homo sapiens, UniProt P78330); assay: SAT-coupled continuous assay of L-Ser production (DTNB, […] nm type read-out); format: biochemical; conditions: 3 mM MgCl2, 50 mM Hepes, 100 mM KCl, pH 7, 37 °C; 12 nM enzyme
T1 construct: gene PSPH; recombinant human PSP with His-tag, plasmid pET28_hPSP, E. coli BL21(DE3), Talon purification, homodimer (54 kDa expected; 53 kDa by SEC)
T1 sequence (P78330 1-225): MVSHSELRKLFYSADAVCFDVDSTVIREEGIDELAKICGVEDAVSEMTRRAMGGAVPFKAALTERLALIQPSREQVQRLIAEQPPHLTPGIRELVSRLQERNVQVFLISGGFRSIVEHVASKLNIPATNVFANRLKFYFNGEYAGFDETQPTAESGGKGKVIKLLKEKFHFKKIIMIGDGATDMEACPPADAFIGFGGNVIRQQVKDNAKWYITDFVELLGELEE

[2] = molecular target: T1, wtPSP (human phosphoserine phosphatase, PSP); assay: PNP-coupled phosphate release assay; format: biochemical
Excerpt: (§1) PNP-coupled phosphate release assay on wtPSP (human phosphoserine phosphatase, PSP)

[3] = molecular target: T2, wtPSP (human phosphoserine phosphatase, PSP) (Homo sapiens, UniProt P78330, D32G); assay: PNP-coupled phosphate release assay; format: biochemical
T2 construct: gene PSPH; recombinant human PSP with His-tag, plasmid pET28_hPSP, E. coli BL21(DE3), Talon purification, homodimer (54 kDa expected; 53 kDa by SEC)
T2 sequence (P78330 1-225 D32G): T1 sequence (P78330 1-225) with D32G
Excerpt: as §1

[4] = molecular target: T3, wtPSP (human phosphoserine phosphatase, PSP) (Homo sapiens, UniProt P78330, D32G/R27S); assay: PNP-coupled phosphate release assay; format: biochemical
T3 construct: gene PSPH; recombinant human PSP with His-tag, plasmid pET28_hPSP, E. coli BL21(DE3), Talon purification, homodimer (54 kDa expected; 53 kDa by SEC)
T3 sequence (P78330 1-225 R27S/D32G): T1 sequence (P78330 1-225) with R27S, D32G
Excerpt: as §1

[5] = molecular target: T4, wtPSP (human phosphoserine phosphatase, PSP) (Homo sapiens, UniProt P78330, R27S); assay: PNP-coupled phosphate release assay; format: biochemical
T4 construct: gene PSPH; recombinant human PSP with His-tag, plasmid pET28_hPSP, E. coli BL21(DE3), Talon purification, homodimer (54 kDa expected; 53 kDa by SEC)
T4 sequence (P78330 1-225 R27S): T1 sequence (P78330 1-225) with R27S
Excerpt: as §1

[6] = substrate: N[C@@H](COP(=O)(O)O)C(=O)O; assay: SAT-coupled continuous assay of L-Ser production; format: biochemical, Homo sapiens; conditions: 3 mM MgCl2, 50 mM Hepes, 100 mM KCl, pH 7, 37 °C
Excerpt: SAT-coupled continuous assay of L-Ser production on wtPSP (human phosphoserine phosphatase, PSP)

- Km [1]: 42 ± 12 µM
Molecule: N[C@@H](COP(=O)(O)O)C(=O)O [3-PS]

- IC50 [2]: 273 ± 31 µM
- IC50 [3]: 746 ± 26 µM
- IC50 [4]: 523 ± 74 µM
- IC50 [5]: 171 ± 15 µM
Molecule: N[C@@H](CO)C(=O)O [L-Ser]

B1: wtPSP (human phosphoserine phosphatase, PSP) (Homo sapiens; R27S) (protein)
chain: T1 sequence (P78330 1-225) with R27S
notes: recombinant human PSP with His-tag, plasmid pET28_hPSP, E. coli BL21(DE3), Talon purification, homodimer (54 kDa expected; 53 kDa by SEC)
- Km ([6]; 12 nM enzyme): 50 ± 3 µM
- kcat ([6]; 12 nM enzyme): 39 ± 1 s⁻¹
- kcat/Km ([6]; 12 nM enzyme): 780000 M⁻¹ s⁻¹

B2: wtPSP (human phosphoserine phosphatase, PSP) (Homo sapiens; D32G) (protein)
chain: T1 sequence (P78330 1-225) with D32G
notes: as for B1
- Km ([6]; 180 nM enzyme): 53 ± 5 µM
- kcat ([6]; 180 nM enzyme): 2.3 ± 0.1 s⁻¹
- kcat/Km ([6]; 180 nM enzyme): 43400 M⁻¹ s⁻¹

B3: wtPSP (human phosphoserine phosphatase, PSP) (Homo sapiens; D32G/R27S) (protein)
chain: T1 sequence (P78330 1-225) with R27S, D32G
notes: as for B1
- Km ([6]; 180 nM enzyme): 75 ± 12 µM
- kcat ([6]; 180 nM enzyme): 2.2 ± 0.1 s⁻¹
- kcat/Km ([6]; 180 nM enzyme): 29300 M⁻¹ s⁻¹

— article PMC12443467, “A phosphoserine phosphatase variant present in the brain of Alzheimer's disease patients favors nuclear mistargeting” (The Febs Journal, 2025)
